Reference: the DeepSol protein solubility set

test: soluble on expression in E. coli; label from the status in PepcDB or PDB records

Sequence	soluble on expression in E. coli
MSKSWGKFIEEEEAEMASRRNLMIVDGTNLGFRFKHNNSKKPFASSYVSTIQSLAKSYSARTTIVLGDKGKSVFRLEHLPEYAGNRDEKYAQRTEEEKALDEQFFEYLKDAFELCKTTFPTFTIRGVEADDMAAYIVKLIGHLYDHVWLISTDGDWDTLLTDKVSRFSFTTRREYHLRDMYEHHNVDDVEQFISLKAIMGDLGDNIRGVEGIGAKRGYNIIREFGNVLDIIDQLPLPGKQKYIQNLNASEELLFRNLILVDLPTYCVDAIAAVGQDVLDKFTKDILEIAEQ	soluble
LQASVNLFPTISVAPSADTSSERSIYKARFLENVAAAETEKQVALAQGRAETLAGAMPNEAGGHPDARQLWDSPETAPAARTPQSPAPCVLLRAQRSLAPEPKEPLIPASPKAEPIWELPTRAPRLSIGDLDFSDLGEDEDQDMLNVESVEAGKDI	not soluble
MSLRGIRMKDYDLIVIGTGSGMNYVNSIIDSNPKMKIAVIDKDEPGGICLTRGCIPSKLLLYPAELVRDLETAPLFGIKLEIKDIEFRTIMERMRKRIGEDIEMIRQGLTENDYLDYYPETAEFISPYTLKAGDEILHSEMIFLCTGSKPAVPPVRGLEEAGYLTSDTVLGLNECPKSLAILGGSYIGAEYGHFFSAMGAEVTVIGRNQHFLPQEEPEVSELARIKMSEYMRILTNHEAIEVRKEKGGQKTVIAKDRDSGEETEVTADEILVATGRAPNNDILHPEKAGIKTDPHGWILVNEYLETSQPNIWAFGDANGKYLLKHVGNYESGIVYLNAIMQEKVKVDYHAVPHAVFSYPEIAGVGMSEKEAIEEFGEKRVIIGFKLFEDTAKGSAMETRDYFVKVILDGLEDKILGAHIIGPHASVLIHQIIPLMYTASRSAKPMMQMMDIHPALSEVVKRAFYSRLSPEHYHHVMKHLGLEDEDSVEGHHHHHH	soluble
MSLKKILVQWKNGPSQIGRMYPLPVFDEHDIVQLCSEVKDILRIQPAVIQRKPGVIIVGDLHGNFLNFLQIFAIHGLPPNQNYIFLGNYINYGEFSLEVVIYLFSLYYLFPSNISLLRGSTEFYPSKGPRSLSSNIDTTYGPNSILKSVFLETFTYLPIACLIGNSVLCSRSSLVSRYSNLQEIFHETLPIPCVVDQSHLFLSGLANVIPSEEVLEEFLATNNLNFLIFGGKNAGDGVENMLDDRCYALASDAHMGYCGIINLVGNQPPFAIIFTPDSDLLRENAQMLREGHHHHHH	not soluble
MKPIACLFAAFAALPVLAHAQTVQMPDVLAAEHALSLGKPVTATIDLTRCTGDTATTPAGTTRGGVTVNPYRIQPDNTLSFSDTHFTVRSDGTPITQFLRYSIDTSGTARFSSYIFAMPAYTLQSQVSYTCKLGEGVKLFARFLEHHHHHH	soluble
ASSNANQAITSENSIKPKGKLQPQMEKYTLTYFNGRGRAEVIRLLFALANVSYEDNRITRDEWKYLKPRTPFGHVPMLNVSGNVLGESHAIELLLGGRFGLLGTNDWEEAKIMAVVLNIDELFQKLIPWTHEKNTTKKAELFRNLSESDVMPFLGRYEKFLKESTTGHIVGNKVSVADLTVFNMLMTLDDEVKLEEYPQLASFVNKIGQMPGIKEWIKKRPKTYF	soluble
MGSDKIHHHHHHMVVLHSKGGFFLEILKVVDLKKHYGDVKAVDGISFTVERGTVFSFLGPNGAGKTTTVEILEGLRKKDSGEIYYFGERKDVLDRETKRKIGVCLQKSAFFENLTVWETLKLFRGLYGTGLDLKEVMGLFSLENIEKKMVKTLSGGQLQRLAVAVAFINDPEIVFLDEPTTGLDPQARRQIWDTIEHFKNLGKTIFLTTHYMEEAERLSDHVCIIDHGKIIAEGTPSSLISSSGLKTVVEFDCDQDVNVRYLEKKENHYVVETDAPEELIKDLLKNWNVSNIVIRKPNLEDVFLKLTGRDLRE	not soluble
MDDAELRAVRTLISLTTRYFAVFKNAPVIMAVIDDNGKVVDANNAAAELIGEKPSGKHLRELLPAELCEKVLSTLEKALEEEKKANLRAKVSGKLLRVQLTPISADGRKLCLLTGFSVEDELSKAAREILRLAARAGDAETVIKGMAKKFGELELFSQVKVELDGLREVVREKDGEFVYEFPLRMHRKKGRVTLESRKELSSEEIDMLAETFEDVSILISTLELESKLSAEVRRTVELINELREQLKAVTLSLEILENDGLKSIVKERLGKMLQVAERLAGE	not soluble
IHPVDSSERVLILGAGRTAEALVRDMRRTGAFVPVGFIDDAVYLRGAKIQGLNVLGRLEEVSTIARETAAKLLVIAIPSLDAAGMQRVVAMCESTGLPFRMVPKLIDVLEGRTLPCQLKEVSIEDLLNRKPVIPDWRLIRSWLSG	not soluble
MGSDKIHHHHHHMSADKYEVIIIGAGLAGLSAAYKLAKAGMEVVVVERGDYPGSKNLSGGVLYSRILDQLIPDFWEEAPIERYITNYLTTLMTPTDYVNIEYKDQELAKPPYNAVTVLRAKFDRWLAEKAEEAGAMIVTGVKVDKVLKEGGRITGITTGDEEMLADVVIAADGINSFIAQEAGLRGEIEPAHLAVGAKALIELPQQAIEERFRLEGNEGTAYAMLGDATHGVAGGGFFYTNRESLSIGVVMRLDDLVKEKVKPFEVLDDLLRHPLVAPLVKDGTMTEYGAHLTAEGGVHMVPSQLHTDGMLIVGDAAGFTINSGLVIRGMDLAIGSGMAAAEAVLEAKERGDYSAAALSSYQRKLDEGFIMKDLKLYAKAVDFMETDRLYKNYAPLANHLFGRIYNHDLSPKEHLWKSVLGSVQESGISWLDLARDGIKGVRAL	not soluble
MAKNKKLFEYLSQHAETISSTWYETIEETDPNSIYASTDPVVIHNLKSQNLAFNYKINRIFIDDEDVYLPILKEWAFEVTQDQEHLKTPIHYIIREFVRVRDLYVSYVKEFVHLNQNTVKSEEAEDLYHALIKAFDLVIHIFIEEMYKNTSLQLQAQKDMITELSAPVIVLFHSVGLLPLIGDIDTVRAKLIMENTLHQCAKKKVTQLYIDLSGVAVIDTMVAHQLFSLIEALRLIGVSSTLSGIRPEIAQTAVQLGLSFEGISLRSTLASAIASDLKLKKV	not soluble
MSLSLVIAAGTILGACGNSEKSSGSGEGKNKFSVAMVTDVGGVDDKSFNQSAWEGIQAFGKENGLKKGKNGYDYLQSKSDADYTTNLNKLARENFDLIYGVGYLMEDSISEIADQRKNTNFAIIDAVVDKDNVASITFKEQEGSFLVGVAAALSSKSGKIGFVGGMESELIKKFEVGFRAGVQAVNPKAVVEVKYAGGFDKADVGKATAESMYKSGVDVIYHSAGATGTGVFTEAKNLKKEDPKRDVWVIGVDKDQYAEGQVEGTDDNVTLTSMVKKVDTVVEDVTKKASDGKFPGGETLTYGLDQDGVGISPSKQNLSDDVIKAVDKWKKKIIDGLEIPATEKELKTFKAEEGGSHHHHHH	soluble
MSLAISQEQKQAIDQALTERLLHHPFYQEAKVIATYLSFSHEFQTRELIEQALKDGKKVLIPKTYPKGRMEFVAYDPQQLVKTSFALLEPQGDVEVVDASQIDLIHVPGLAFTTKGYRIGYGGGYYDRYLEHFSGRTLSTIYPCQIQDFIPENHDIPVQEVLIDEGNLEGHHHHHH	soluble
GRMRIQEQSGARDKMVIGAGGLEDYIDKAMDDVAPNLKALVGAKLGARLISLAGGLKELAMLPSSTIQVLGAEKALFRHLRTGAKPPKHGVIYQYPAINRSPWWQRGKIARALAGKLAIAARVDYFSGEYIAEELKKELEARIKEIKEKYPRPPKRRKEERKGRKPWKE	soluble
PLENQELTPLFGQPDWFLGILPSQAGNLKVLDTARWVMPERYRDDYRDGLKYVISVQGYEWGLAVHQVSRSIRLDPAEVKWRSQRSQRPWLAGTVIEH	not soluble
MSETVYTAKDYKSGQPRWCPGCGDHAFLNSLHKAMAELGVAPHNIAVISGIGCSSRLPYYVNTYGFHTIHGRAAAVATGAKVANPDLTIWQISGDGDGLAIGGNHFIHAVRRNIDLNMILLNNRIYGLTKGQYSPTSDRGFVSKSSPYGTVEDPFHPAELCFGARGRFFARCVAVDGPASVEVLKAAANHKGASVVEVLQNCVIFNDGTHESVATKEGRSKNAIYLEHGKPMLFGENKEFGLMQEGFGLKVVKLGENGVTEKDILIHNAHSMDNTLQLKLALMEGPDFPIALGVIRDVEAPTYNDAVAEQIDEVKAKKKYHNFQELLMTNETWEVK	not soluble
MGHHHHHHSHMAAMLNFNLQQLCGPKCRDLKVENPEKYGFEPKKLLDQLTDIYLQLDCARFAKAIADDQRSYSKELFEEVISKMRKAGIKSTIAIEKFKLLAEKVEEIVAKNARAEIDYSDAPDEFRDPLMDTLMTDPVRLPSGTIMDRSIILRHLLNSPTDPFNRQTLTESMLEPVPELKEQIQAWMREKQNSDH	soluble
MGSDKIHHHHHHMNEDLFYDRLHQRCPGKYLLEELETSKSNDVLHASRFVCEMELVQKTNAYYCKTIVKMLLDHEWIFAKAFTIVNDGEDEIEIYDYLYEKYIKLLSTGKPDPMMKDVVRYRFDEDVKITIEETPNLISAASTTGFRTWEAALYMGDFLIHKPLQELAPVQGQDDGKKKLNVLEVGAGTGIVSLVILQKYHEFVNKMYVTDGDSNLVETQLKRNFELNNEVRENEPDIKLQRLWWGSDRVPEDIDLVVGADVTYDPTILPDLCECLAECLALDRCKLCLLSATIRSESTVQLFSQECNKLGLKCTIVTSTEYDANNEIRAMKALQFKPLIAPIRIYKITKQ	not soluble
MIARKRRARTIHSRYPIGIYGSIVMTDIAQLLGKDADNLLQHRCMTIPSDQLYLPGHDYVDRVMIDNNRPPAVLRNMQTLYNTGRLAGTGYLSILPVDQGVEHSAGASFAANPLYFDPKNIVELAIEAGCNCVASTYGVLASVSRRYAHRIPFLVKLNHNETLSYPNTYDQTLYASVEQAFNMGAVAVGATIYFGSEESRRQIEEISAAFERAHELGMVTVLWAYLRNSAFKKDGVDYHVSADLTGQANHLAATIGADIVKQKMAENNGGYKAINYGYTDDRVYSKLTSENPIDLVRYQLANCYMGRAGLINSGGAAGGETDLSDAVRTAVINKRAGGMGLILGRKAFKKSMADGVKLINAVQDVYLDSKITIA	soluble
KVNNIMKKLLSSMILIWGGLISFSNNITGPRHRIEISAGFINDRQNATMGNNIFISNSISYIPEWKIQVNKKFDVTFGPKVVLNFSNFITVSNGTAKAASSSNNANPVTITPSLILGGELDFNYSVKENLKIYTGLEVGTGIGFQISTVGSNVQNPEFRTSSKIALGVKINEKYNIAIYTADIKGLLGLEAGYTF	not soluble
MDITKADEPVIDEKDYPKPSDAELKAKLTPLQYSVTQNKHTERSFSNEYWDNFQPGIYVDITTGEPVFSSNDKFESGCGWPSFTKPIIKDVVHYETDNSFNMQRTEVLSRAGNAHLGHVFDDGPKDKGGLRYCINSASIKFIPLAEMEKAGYGYLIQSIKK	not soluble
MAQEDVTAVATNGAGPVETHLVFTEFKQMLLVEAQKVGDAVTFYKSAFGAIESGHSLYPKRKLDQELPHVLSSELNLAGSSFVVCDVSSLPGFSTAKSEGSGVTFLLGTKDAEAAVAKAVDAGAVKVEVTEAEVELGFKGKVTDPFGVTWIFAEKKTVITDENKEV	soluble
MKKALQVAMFSLFTVIGFNAQANEHHHETMSEAQPQVISATGVVKGIDLESKKITIHHDPIAAVNWPEMTMRFTITPQTKMSEIKTGDKVAFNFVQQGNLSLLQDIKVSQ	soluble
MSLHYPFVTNDDIEWMLSICVEWRLPEIAKEIYTTLGNQMLSAHNIIESIANFSRAGKYELVKSYSWLLFEASCMEGQKLDDPVLNAIVSKNSPAEDDVIIPQDILDCVVTNSMRQTLAPYAVLSQFYELRDREDWGQALRLLLLLIEFPYLPKHYLVLLVAKFLYPIFLLDDKKLMDEDSVATVIEVIETKWDDADEKSSNLYETIIEADKSLPSSMATLLKNLRKKLNFKLCQAFMEGHHHHHH	not soluble
